Measured values taken from patent US20250042956A1 (University of California, published 2025).

Experiments:
Experiment in all cases: IP-MS rep 2
AT5G08450.1 HDC1 = biological target: T1, AT5G08450.1 HDC1 (Arabidopsis thaliana)
T1 construct: Endogenous protein found by mass spectrometry
Method in brief: (§1)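 Mass spectrometry of anti-FLAG eluates gave the peptide counts for co-purified proteins. The eluates came from ten grams of unopened floral buds of wild-type and FLAG-tagged transgenic Arabidopsis, ground in liquid nitrogen and homogenised in 25 mL IP buffer. Lysates were bound to 250 μL anti-FLAG M2 magnetic beads for 2 hours at 4° C and released with 250 μg/mL 3×FLAG peptides in TBS.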

AT4G35510.1 TRBIP1 = biological target: T2, AT4G35510.1 TRBIP1 (Arabidopsis thaliana)
T2 construct: Endogenous protein found by mass spectrometry
T2 chain: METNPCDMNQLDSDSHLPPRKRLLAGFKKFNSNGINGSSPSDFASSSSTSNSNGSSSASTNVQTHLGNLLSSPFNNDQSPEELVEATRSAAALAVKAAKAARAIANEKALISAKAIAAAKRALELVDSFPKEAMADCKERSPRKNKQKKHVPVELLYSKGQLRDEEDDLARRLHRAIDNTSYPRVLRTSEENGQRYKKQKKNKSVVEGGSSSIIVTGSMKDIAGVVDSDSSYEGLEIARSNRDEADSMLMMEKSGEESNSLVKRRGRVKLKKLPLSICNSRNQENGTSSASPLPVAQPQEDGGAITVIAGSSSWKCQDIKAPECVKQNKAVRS
Method in brief: as §1

AT3G49850.1 TRB3 = biological target: T3, AT3G49850.1 TRB3 (Arabidopsis thaliana, UniProt Q9M2X3 1-295)
T3 construct: Endogenous protein found by mass spectrometry
T3 sequence: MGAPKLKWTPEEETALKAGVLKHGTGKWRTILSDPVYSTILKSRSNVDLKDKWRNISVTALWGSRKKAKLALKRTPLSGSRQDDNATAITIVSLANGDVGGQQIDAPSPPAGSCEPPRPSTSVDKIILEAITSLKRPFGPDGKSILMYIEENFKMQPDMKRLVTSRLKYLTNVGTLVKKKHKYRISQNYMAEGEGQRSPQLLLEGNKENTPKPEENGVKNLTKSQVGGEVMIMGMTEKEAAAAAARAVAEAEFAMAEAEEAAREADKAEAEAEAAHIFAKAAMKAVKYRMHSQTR
Method in brief: as §1

AT5G51230.1 EMF2 = biological target: T4, AT5G51230.1 EMF2 (Arabidopsis thaliana, UniProt Q8L6Y4 1-631)
T4 construct: Endogenous protein found by mass spectrometry; also called EMBRYONIC FLOWER 2
T4 sequence (looked up): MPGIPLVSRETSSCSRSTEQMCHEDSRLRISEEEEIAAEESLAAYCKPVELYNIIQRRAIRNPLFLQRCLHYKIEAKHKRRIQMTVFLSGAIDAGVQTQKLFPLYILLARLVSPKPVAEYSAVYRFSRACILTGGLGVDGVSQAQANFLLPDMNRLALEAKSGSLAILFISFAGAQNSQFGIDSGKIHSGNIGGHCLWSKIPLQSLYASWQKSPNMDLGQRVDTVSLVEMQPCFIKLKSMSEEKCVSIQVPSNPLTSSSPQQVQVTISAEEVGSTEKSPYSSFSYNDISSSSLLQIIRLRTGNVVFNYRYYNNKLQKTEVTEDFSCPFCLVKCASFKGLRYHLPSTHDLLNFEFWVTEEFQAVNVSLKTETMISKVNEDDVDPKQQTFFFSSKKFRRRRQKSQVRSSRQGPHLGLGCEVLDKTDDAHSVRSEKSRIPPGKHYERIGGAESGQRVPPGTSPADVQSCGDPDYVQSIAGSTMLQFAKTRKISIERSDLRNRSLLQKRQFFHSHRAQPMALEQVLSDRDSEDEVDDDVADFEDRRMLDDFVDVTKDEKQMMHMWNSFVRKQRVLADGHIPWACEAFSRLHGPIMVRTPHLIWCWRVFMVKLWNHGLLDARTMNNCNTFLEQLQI
Method in brief: as §1

AT5G67580.1 TRB2 = biological target: T5, AT5G67580.1 TRB2 (Arabidopsis thaliana, UniProt Q9FJW5 1-299)
T5 construct: Endogenous protein found by mass spectrometry
T5 sequence: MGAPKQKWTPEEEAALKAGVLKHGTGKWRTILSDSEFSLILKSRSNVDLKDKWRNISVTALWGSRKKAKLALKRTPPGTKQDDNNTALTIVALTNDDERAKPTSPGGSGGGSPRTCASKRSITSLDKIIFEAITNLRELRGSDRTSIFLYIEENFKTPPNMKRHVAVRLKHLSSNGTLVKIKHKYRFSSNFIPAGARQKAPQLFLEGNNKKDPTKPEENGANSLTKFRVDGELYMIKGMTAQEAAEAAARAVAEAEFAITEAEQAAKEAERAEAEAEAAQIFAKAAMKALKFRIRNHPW
Method in brief: as §1

AT2G23380.1 CLF = biological target: T6, AT2G23380.1 CLF (Arabidopsis thaliana, UniProt P93831 1-902)
T6 construct: Endogenous protein found by mass spectrometry; also called CURLY LEAF
T6 sequence (looked up): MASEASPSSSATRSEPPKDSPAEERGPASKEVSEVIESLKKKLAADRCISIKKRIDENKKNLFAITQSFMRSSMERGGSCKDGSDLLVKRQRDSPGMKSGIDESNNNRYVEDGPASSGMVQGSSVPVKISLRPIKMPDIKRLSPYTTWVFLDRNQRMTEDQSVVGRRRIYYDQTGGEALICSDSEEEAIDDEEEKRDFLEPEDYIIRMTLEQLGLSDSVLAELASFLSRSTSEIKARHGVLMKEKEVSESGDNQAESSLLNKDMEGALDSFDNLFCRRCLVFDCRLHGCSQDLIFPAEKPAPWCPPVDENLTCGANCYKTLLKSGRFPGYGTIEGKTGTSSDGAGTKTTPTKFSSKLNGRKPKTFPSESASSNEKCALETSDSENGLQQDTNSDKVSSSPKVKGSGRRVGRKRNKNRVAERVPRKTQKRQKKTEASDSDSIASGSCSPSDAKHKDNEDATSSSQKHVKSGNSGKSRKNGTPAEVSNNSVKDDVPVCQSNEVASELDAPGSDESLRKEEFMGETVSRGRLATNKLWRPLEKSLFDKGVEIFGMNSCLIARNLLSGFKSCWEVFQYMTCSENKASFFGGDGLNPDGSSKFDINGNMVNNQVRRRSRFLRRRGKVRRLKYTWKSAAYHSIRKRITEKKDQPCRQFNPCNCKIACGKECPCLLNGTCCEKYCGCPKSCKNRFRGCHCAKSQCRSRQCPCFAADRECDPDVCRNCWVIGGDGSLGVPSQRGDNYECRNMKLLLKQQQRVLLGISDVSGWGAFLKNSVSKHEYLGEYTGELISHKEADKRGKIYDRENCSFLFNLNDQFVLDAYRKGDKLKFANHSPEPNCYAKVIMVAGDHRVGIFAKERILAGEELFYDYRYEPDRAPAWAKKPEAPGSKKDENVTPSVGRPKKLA
Method in brief: as §1

IP-MS count (AT5G08450.1 HDC1): 0 | IP-MS count (AT4G35510.1 TRBIP1): 0 | IP-MS count (AT3G49850.1 TRB3): 6 | IP-MS count (AT5G51230.1 EMF2): 0 | IP-MS count (AT5G67580.1 TRB2): 3 | IP-MS count (AT2G23380.1 CLF): 0
B1: TRBIP2 (bait of the TRBIP2 IP-MS) (other, not shown: small tags and cut ends)
chain: MATNACLESDSLLPPRKRLLAGFKNQNSRISNESPSPPFASSSSSTTTSNGSSASAVVHTHHLDHLLNDQTRSPEELAQASKATAALAVKVAKAARATANEKAIIASKAVAAAKNALELFASFPAAETVSCKEPRLIRAINNSPRVLTDCSGHRNKKQKTLTSTMNDGNDVAGVVDSDDGTRVNGKLLLCDNTLKEKTEEESSSLGKRRGRVKLPLSMCAYKDQENGITLEENNLSVSKSEGYNGGVAQVIERPSWKCQDLKSPECVKQNKVVRS
notes: tag and its position not described; also called TRBIP2-1; TRBIP2-2
